Target: vimentin (UniProt P08670)
Assay: co-immunoprecipitation, FAK-FLAG and endogenous vimentin
Conditions: reference: WT FAK-FLAG; sites Y397

## focal adhesion kinase (FAK) (from UniProt Q05397) Y397F FAK-FLAG
  binding against the reference: weaker

— paper PMC4245398
